T1: HuCDCP1-A (human, UniProt Q9H5V8 30-430)
T1 construct: range 30-430; expressed in HEK-293T, purified by Fc/his tag; also called human CDCP1-A; membrane-distal region of CDCP1; not shown: Fc or his tag
T1 sequence (looked up): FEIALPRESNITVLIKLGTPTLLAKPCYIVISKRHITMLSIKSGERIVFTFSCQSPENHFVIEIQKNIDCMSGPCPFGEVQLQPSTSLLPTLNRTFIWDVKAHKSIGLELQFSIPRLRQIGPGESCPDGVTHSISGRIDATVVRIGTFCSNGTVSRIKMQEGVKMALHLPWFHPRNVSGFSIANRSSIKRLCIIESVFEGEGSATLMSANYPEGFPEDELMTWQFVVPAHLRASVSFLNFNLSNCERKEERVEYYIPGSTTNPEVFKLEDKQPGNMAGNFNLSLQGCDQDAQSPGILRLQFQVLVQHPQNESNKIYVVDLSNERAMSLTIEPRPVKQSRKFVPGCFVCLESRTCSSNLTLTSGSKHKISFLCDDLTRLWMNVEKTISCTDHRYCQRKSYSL

T2: MsCDCP1 (mouse, UniProt Q5U462 30-666)
T2 construct: extracellular domain; also called mouse CDCP1; not shown: Fc or his tag
T2 sequence (looked up): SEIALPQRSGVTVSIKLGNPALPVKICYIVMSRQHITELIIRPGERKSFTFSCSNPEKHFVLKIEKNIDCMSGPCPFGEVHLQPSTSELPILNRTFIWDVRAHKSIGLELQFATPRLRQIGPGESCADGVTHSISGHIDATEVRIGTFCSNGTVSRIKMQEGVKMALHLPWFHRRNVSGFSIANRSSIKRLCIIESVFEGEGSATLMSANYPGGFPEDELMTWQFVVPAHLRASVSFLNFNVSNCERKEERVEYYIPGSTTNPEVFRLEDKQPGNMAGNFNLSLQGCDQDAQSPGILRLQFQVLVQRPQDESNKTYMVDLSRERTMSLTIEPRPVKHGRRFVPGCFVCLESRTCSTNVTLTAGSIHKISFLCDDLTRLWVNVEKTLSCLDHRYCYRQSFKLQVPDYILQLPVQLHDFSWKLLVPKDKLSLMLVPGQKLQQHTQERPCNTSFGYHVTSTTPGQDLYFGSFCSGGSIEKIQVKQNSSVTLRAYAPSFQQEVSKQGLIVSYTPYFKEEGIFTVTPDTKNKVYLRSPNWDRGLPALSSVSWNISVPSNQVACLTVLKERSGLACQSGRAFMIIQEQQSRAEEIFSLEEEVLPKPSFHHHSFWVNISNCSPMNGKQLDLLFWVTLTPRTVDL

B1: 3F1A11 (antibody, V domains shown)
VH: EVKLVESGPGLVKPSQSLSLTCTVTGYSITSDYAWNWIRQFPGNKLEWMGYISYNTYTSYNPSLKSRISVTRDTSKNQFFLQLKSVTIEDTATYFCAGGDYYGTGAVDYWGQGTTVTVSS
VL: EIVLTQSPLSLPVSLGDQASISCRSRQTLVHTNGNTYLDWYLQKPGQSPKLLIYKVSIRFSGVPDRFSGSRSGTDFTLKISRVEAEDLGIYYCFQGSHVPWTFGGGTKLEIK
notes: murine hybridoma mAb
B2: 5B8 (antibody, V domains shown)
VH: EVQLKESGGGLVQPGGSLRISCATSGLTFTHYHMSWVRQPPGKAPEWLAIIRNKAYGYTTDYSASVRGRFTISRDDSQSILYLQMNTLRAEDSATYYCVREGGYGYDGTFAYWGQGTTVTVSS
VL: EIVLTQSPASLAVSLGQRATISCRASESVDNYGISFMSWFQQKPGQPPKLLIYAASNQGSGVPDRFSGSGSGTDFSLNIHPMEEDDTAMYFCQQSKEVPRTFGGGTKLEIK
notes: murine hybridoma mAb
B3: 8C9 (antibody, V domains shown)
VH: B2 VH with A90P
VL: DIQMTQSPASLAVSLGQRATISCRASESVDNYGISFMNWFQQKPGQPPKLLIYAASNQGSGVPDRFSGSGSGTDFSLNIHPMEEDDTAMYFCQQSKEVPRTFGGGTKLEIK
notes: murine hybridoma mAb
B4: 8E5 (antibody, V domains shown)
VH: EVQLKESGPELKKPGETVKISCKASGYTLTDFSMHWLKQAPGKGLKWMGWINTETGAPTYADDFKGRFALSLDTSANTAYLQINNLKNEDTATYFCSRGRDYDPHFDYWGQGTTVTVSS
VL: EIVLTQSPATLSVTPGDRVSLSCRASQSISDFLHWYQQRSHESPRLLIKYASQSISGIPSRFGGSGSGSDFTLNINTVEPEDVGMYYCQSAHSFPYTFGGGTKLEIK
notes: murine hybridoma mAb; also called 8ES
B5: 12E6 (antibody, V domains shown)
VH: EVQLKESGPGILQPSQTLSLTCSFSGFSLSTSGMGVGWIRQPSGKGLEWLAHIWWDDVKLYNPALKSRLTISKETSNNQVFLKIASVDAADTATYYCARIDHGYGSNYWDFDVWGAGTTVTVSS
VL: DIVMTQAAPSVPVTPGGSVSISCRSTKSLLHSDGKTYLYWFLQRPGQSPQLLIYRMSNLASGVPDRFSGSGSGTAFTLRISRVEAEDVGVYYCMQHLEYPFTFGSGTKLEIK
notes: murine hybridoma mAb
B6: 3C11 (antibody, V domains shown)
VH: EVQLQQSGTVLARPGASVKMSCKASGYNFISYWLHWIKQRPGQGLEWIGGIYPGNTDTTYNQKFKGKAKVTAVTSATTAYMELSSLTNEDSAVYYCIRYDYDRGMDYWGQGTTVTVSS
VL: DIQMTQSPSSFSVSLGDRVTITCRASEDIYYRLAWYQQKPGNAPRLLISGATALETGVPSRFSGSGSGKDYTLSITSLQTEDVATYYCQHYWNIPWTFGGGTKLEIK
notes: murine hybridoma mAb
B7: 3B12H5 (antibody, V domains shown)
VH: EVQLQQSGTVLARPGASVKMSCKASGYSFTIYWVHWVKQRPGQGLEWIGAVYPGNDDTSYNQNFKGKAKLTAVTSATTAYMELSSLTIDDSAVYYCTRHTYDEVFDYWGQGTTVTVSS
VL: B6 VL with Q3V, F11L, R24K, A51G, A53N, T56A, V58I, T85I, I94T
notes: murine hybridoma mAb; also called 3B12HS
B8: 6A7 (antibody, V domains shown)
VH: EVQLKESGAELVRPGASVKVSCKASGYSFTSYWMNWVKQRPGQGLEWIGMIHPSDSETKLNQKFRDRASLTVDKSSSTAYMQLSSPTSEDSAVYYCTINYESFYYAMDYWGQGTTVTVSS
VL: DIVMTQSPASLAVSLGQRATISCRASKSVSTSGYSYMHWYQQKPGQPPKLLLYLASNLESGVPARFSGSGSGADFTLNIHPVEEEDAATYYCLHSRELPYTFGGGTKLEIK
notes: murine hybridoma mAb
B9: G10F6 (antibody, V domains shown)
VH: EVKLVESGPGILQPSQTLSLTCSFSGFSLSTSGMGVSWVRQPSGKGLEWLAHIYWDDDKRYNPSLKGRLTISKDTPRNQVFLEITSVDTTDTATYYCARVPGNWDEDAMDYWGQGTTVTVSS
VL: DIQMTQSPLSLPVSLGDQASISCRSSQNIVHTNGNTYLEWYLQKVGQSPKLLIYKVSNRFSGVPDRFSGSGSGTDFTLKISRVEAEDLGVYYCFQGSHVPYTFGGGTKLEIK
notes: murine hybridoma mAb
B10: 14A10C5 (antibody, V domains shown)
VH: EVKLVESGPGILQPSQTLSLTCSFSGFSLSTSGMGVSWIRQPSGKGLEWLAHIYWDDEKRYNPSLKSRLTISKDTSSNQVFLKITSVDTADTATYYCAREGSANWEAMDYWGQGTTVTVSS
VL: B9 VL with Q3V, S7A, P8A, H31Y, N35I, V45P, G73A, G96S, Y101W
notes: murine hybridoma mAb; also called 14A10CS
B11: 10D2 (antibody, V domains shown)
VH: EVQLQQSGPELKKPGETVKISCKASGYTFTDYSMHWVKQAPGKGLKWMGWINTETGQPTYADDFKGRFAFSLETSASSAYLQINNLKNEDTATYFCTRTFYYDYVGDYWGQGTTVTVSS
VL: DIVMTQSHKFMSTSVGDRVSITCKASQDVSTAVAWYRQKPGQSPKLLIYWASTRHTGVPDRLTGSGSGTDFALTINSVQAEDLALYYCQQHSSTPYTFGGGTKLEIK
notes: murine hybridoma mAb

This note sets out measurements from patent US20260250410A1 (SICHUAN HUIYU PHARMACEUTICAL, published 2026).

Changes are numbered by the printed parent chain.

The first assay addresses T1, HuCDCP1-A. As to the kind of experiment: SPR (Caterra or Biacore), antigen immobilized.
B1 returned a concentration for a half-maximal effect (EC50) of 127 nM.
B2: the binding result is reported as “no binding (tested: 150 nM highest concentration)”.
Still for that read-out and setting: then B3, with “no binding (tested: 150 nM highest concentration)”.
Take B4: the EC50 came out at 79.3 nM.
Turning to B5, a half-maximal response (EC50) required 1.67 nM.
On to B6, for which the binding result is “no binding (tested: 150 nM highest concentration)”.
In turn, B7 displayed an EC50 of 52.3 nM.
On to B8, for which the binding result is reported as “no binding (tested: 150 nM highest concentration)”.
Consider B9, for which the binding result is listed as “no binding (tested: 150 nM highest concentration)”.
As for B10, the binding result is recorded as “no binding (tested: 150 nM highest concentration)”.
For B11, the response was half-maximal at 0.747 nM (EC50).

The target of the next assay is T2, MsCDCP1. Briefly: SPR (Caterra or Biacore), antigen immobilized.
Consider B1, for which the binding result is on record as “no binding (tested: 150 nM highest concentration)”.
With B2, the binding result is “no binding (tested: 150 nM highest concentration)”.
For B3, the binding result is given as “no binding (tested: 150 nM highest concentration)”.
As to B4, the binding result was “no binding (tested: 150 nM highest concentration)”.
The molecule B5 had an EC50 of 4010 nM.
Take B6: the binding result is recorded as “no binding (tested: 150 nM highest concentration)”.
As to B7, the binding result is reported as “no binding (tested: 150 nM highest concentration)”.
For the molecule B8, the EC50 was determined as 27.5 nM.
Regarding B9, the binding result was “no binding (tested: 150 nM highest concentration)”.
The same measure, in the same setting: then B10, with “no binding (tested: 150 nM highest concentration)”; and B11, with “no binding (tested: 150 nM highest concentration)”.
